Assay results: patent US20140288277

How the values were obtained:
[1] = tested on: Fab30 (anti-VCIII, YSGR Min clone 30) (synthetic); assay: filter; conditions: filter binding / dot blot assay; Example 2 names the V. cholerae target VCLD1
[2] = tested on: Fab29 (anti-VCIII, YSGR Min clone 29) (synthetic); assay: filter; conditions: filter binding / dot blot assay; Example 2 names the V. cholerae target VCLD1
[3] = tested on: Fab11 (anti-P4-P6, YSGR Min clone 11) (synthetic); assay: filter; conditions: filter binding / dot blot assay
[4] = tested on: Fab8 (anti-P4-P6, YSGR Min clone 8) (synthetic); assay: FP; conditions: filter binding / dot blot assay
[5] = tested on: Fab16 (anti-FNIII, YSGR Min clone 16) (synthetic); assay: filter; conditions: filter binding / dot blot assay
[6] = tested on: T1, Fab7 (anti-tRNAiMet) (synthetic); assay: filter; conditions: soluble Fab; discrete complex also in native gel
T1 sequence: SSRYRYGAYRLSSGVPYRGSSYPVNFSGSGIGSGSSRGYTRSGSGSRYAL

[7] = tested on: Fab1 (anti-tRNAiMet, YSGRX clone 1), phage displayed (synthetic); assay: competition; conditions: competitive phage ELISA; selection RNA carried a 29 nt 3' tag

For VCIII glycine riboswitch, the Kd [1] was 22 nM and the Kd [2] was 38 nM.

“P4-P6 domain of Tetrahymena group I intron” was tested, and the Kd [3] was 20 nM and the Kd [4] was 53 nM.

FNIII glycine riboswitch was tested, and the Kd [5] was 160 nM.

In the case of human initiator tRNAiMet transcript, the Kd [6] is reported as 59 nM and the Kd [7] is reported as 53 nM.
